± gives the standard deviation of the averaged measurements.
What was measured:
MCF7 = test: percentage of EdU-negative (G0-arrested) nuclei per well, 72 h; higher = more G0 arrest; conditions: reference: sequence is the full UniProt precursor, the tested protein was the secreted form or ectodomain
hTERT-HMEC = test: as above; conditions: reference: sequence is the full UniProt precursor, the tested protein was the secreted form or ectodomain
[1] = protein concentration 0.0225 µM
[2] = protein concentration 0.02425 µM
[3] = protein concentration 0.2425 µM
[4] = protein concentration 0.03125 µM
[5] = protein concentration 0.3125 µM
[6] = protein concentration 0.0165 µM
[7] = protein concentration 0.023405 µM
[8] = protein concentration 0.23405 µM
[9] = protein concentration 0.0257143 µM
[10] = protein concentration 0.257143 µM
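Note: secreted proteins added to cultured cells, EdU pulse at the end, nuclei found by Hoechst imaging, EdU status from nuclear versus surrounding ring intensity ratio, PBS as neutral control.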

MKTGHFEIVTMLLATMILVDIFQVKAEVLDMADNAFDDEYLKCTDRMEIKYVPQLLKEEKASHQQLDTVWENAKAKWAARKTQIFLPMNFKDNHGIALMAYISEAQEQTPFYHLFSEAVKMAGQSREDYIYGFQFKAFHFYLTRALQLLRKPCEASSKTVVYRTSQGTSFTFGGLNQARFGHFTLAYSAKPQAANDQLTVLSIYTCLGVDIENFLDKESERITLIPLNEVFQVSQEGAGNNLILQSINKTCSHYECAFLGGLKTENCIENLEYFQPIYVYNPGEKNQKLEDHSEKNWKLEDHGEKNQKLEDHGVKILEPTQIPGMKIPEPFPLPEDKSQGNINNPTPGPVPVPGPKSHPSASSGKLLLPQFGMVIILISVSAINLFVAL
percentage of EdU-negative (MCF7; [1]): 24.99 ± 0.071%
percentage of EdU-negative (MCF7; protein concentration 0.225 µM): 27.3 ± 1.4%
percentage of EdU-negative (hTERT-HMEC; [1]): 4.51 ± 0.24%
percentage of EdU-negative (hTERT-HMEC; protein concentration 0.225 µM): 5.22 ± 0.84%

MKTLAGLVLGLVIFDAAVTAPTLESINYDSETYDATLEDLDNLYNYENIPVDKVEIEIATVMPSGNRELLTPPPQPEKAQEEEEEEESTPRLIDGSSPQEPEFTGVLGPHTNEDFPTCLLCTCISTTVYCDDHELDAIPPLPKNTAYFYSRFNRIKKINKNDFASLSDLKRIDLTSNLISEIDEDAFRKLPQLRELVLRDNKIRQLPELPTTLTFIDISNNRLGRKGIKQEAFKDMYDLHHLYLTDNNLDHIPLPLPENLRALHLQNNNILEMHEDTFCNVKNLTYIRKALEDIRLDGNPINLSKTPQAYMCLPRLPVGSLV
percentage of EdU-negative (MCF7; [2]): 23.5 ± 1%
percentage of EdU-negative (MCF7; [3]): 26.2 ± 2.6%
percentage of EdU-negative (hTERT-HMEC; [2]): 4.4 ± 0.046%
percentage of EdU-negative (hTERT-HMEC; [3]): 6.32 ± 0.2%

MKTLFLGVTLGLAAALSFTLEEEDITGTWYVKAMVVDKDFPEDRRPRKVSPVKVTALGGGNLEATFTFMREDRCIQKKILMRKTEEPGKFSAYGGRKLIYLQELPGTDDYVFYCKDQRRGGLRYMGKLVGRNPNTNLEALEEFKKLVQHKGLSEEDIFMPLQTGSCVLEH [Q9NY56]
percentage of EdU-negative (MCF7; [4]): 25.1 ± 0.74%
percentage of EdU-negative (MCF7; [5]): 25.7 ± 0.44%
percentage of EdU-negative (hTERT-HMEC; [4]): 5 ± 0.88%
percentage of EdU-negative (hTERT-HMEC; [5]): 6.83 ± 0.95%

MKTLLLLAVIMIFGLLQAHGNLVNFHRMIKLTTGKEAALSYGFYGCHCGVGGRGSPKDATDRCCVTHDCCYKRLEKRGCGTKFLSYKFSNSGSRITCAKQDSCRSQLCECDKAAATCFARNKTTYNKKYQYYSNKHCRGSTPRC
percentage of EdU-negative (MCF7; [6]): 25.3 ± 2.7%
percentage of EdU-negative (MCF7; protein concentration 0.165 µM): 29.2 ± 0.99%
percentage of EdU-negative (hTERT-HMEC; [6]): 4.75 ± 0.11%
percentage of EdU-negative (hTERT-HMEC; protein concentration 0.165 µM): 6.7 ± 0.9%

MKTLQFFFLFCCWKAICCNSCELTNITIAIEKEECRFCISINTTWCAGYCYTRDLVYKDPARPKIQKTCTFKELVYETVRVPGCAHHADSLYTYPVATQCHCGKCDSDSTDCTVRGLGPSYCSFGEMKE
percentage of EdU-negative (MCF7; [4]): 25.3 ± 0.9%
percentage of EdU-negative (MCF7; [5]): 26.6 ± 1.5%
percentage of EdU-negative (hTERT-HMEC; [4]): 5.26 ± 0.36%
percentage of EdU-negative (hTERT-HMEC; [5]): 4.61 ± 0.34%

MKTPWKVLLGLLGAAALVTIITVPVVLLNKGTDDATADSRKTYTLTDYLKNTYRLKLYSLRWISDHEYLYKQENNILVFNAEYGNSSVFLENSTFDEFGHSINDYSISPDGQFILLEYNYVKQWRHSYTASYDIYDLNKRQLITEERIPNNTQWVTWSPVGHKLAYVWNNDIYVKIEPNLPSYRITWTGKEDIIYNGITDWVYEEEVFSAYSALWWSPNGTFLAYAQFNDTEVPLIEYSFYSDESLQYPKTVRVPYPKAGAVNPTVKFFVVNTDSLSSVTNATSIQITAPASMLIGDHYLCDVTWATQERISLQWLRRIQNYSVMDICDYDESSGRWNCLVARQHIEMSTTGWVGRFRPSEPHFTLDGNSFYKIISNEEGYRHICYFQIDKKDCTFITKGTWEVIGIEALTSDYLYYISNEYKGMPGGRNLYKIQLSDYTKVTCLSCELNPERCQYYSVSFSKEAKYYQLRCSGPGLPLYTLHSSVNDKGLRVLEDNSALDKMLQNVQMPSKKLDFIILNETKFWYQMILPPHFDKSKKYPLLLDVYAGPCSQKADTVFRLNWATYLASTENIIVASFDGRGSGYQGDKIMHAINRRLGTFEVEDQIEAARQFSKMGFVDNKRIAIWGWSYGGYVTSMVLGSGSGVFKCGIAVAPVSRWEYYDSVYTERYMGLPTPEDNLDHYRNSTVMSRAENFKQVEYLLIHGTADDNVHFQQSAQISKALVDVGVDFQAMWYTDEDHGIASSTAHQHIYTHMSHFIKQCFSLP
percentage of EdU-negative (MCF7; protein concentration 0.009 µM): 24.2 ± 0.48%
percentage of EdU-negative (MCF7; [7]): 24.2 ± 0.77%
percentage of EdU-negative (MCF7; protein concentration 0.09 µM): 26.5 ± 0.49%
percentage of EdU-negative (MCF7; [8]): 29.2 ± 1.1%
percentage of EdU-negative (hTERT-HMEC; protein concentration 0.009 µM): 4.55 ± 0.2%
percentage of EdU-negative (hTERT-HMEC; [7]): 5.17 ± 1.7%
percentage of EdU-negative (hTERT-HMEC; protein concentration 0.09 µM): 6.07 ± 0.24%
percentage of EdU-negative (hTERT-HMEC; [8]): 6.28 ± 0.073%

MKVLLCDLLLLSLFSSVFSSCQRDCLTCQEKLHPALDSFDLEVCILECEEKVFPSPLWTPCTKVMARSSWQLSPAAPEHVAAALYQPRASEMQHLRRMPRVRSLFQEQEEPEPGMEEAGEMEQKQLQKRFGGFTGARKSARKLANQKRFSEFMRQYLVLSMQSSQRRRTLHQNGNV
percentage of EdU-negative (MCF7; [9]): 24.9 ± 0.7%
percentage of EdU-negative (MCF7; [10]): 27.5 ± 0.28%
percentage of EdU-negative (hTERT-HMEC; [9]): 4.77 ± 0.15%
percentage of EdU-negative (hTERT-HMEC; [10]): 5.6 ± 0.068%
